Laboratory results from paper doi:10.1101/2023.10.30.564738 (bioRxiv, 2023).

Target: Ndc80 complex (Ndc80-Flag:Nuf2:Spc24:Spc25) (S. cerevisiae, UniProt P40460 1-691; P33895 1-451; Q04477 1-213; P40014 1-221)
Test: SEC

Ndc80 complex (Ndc80-Flag:Nuf2:Spc24:Spc25), sequence (P40460 whole entry, chain 1 of 4): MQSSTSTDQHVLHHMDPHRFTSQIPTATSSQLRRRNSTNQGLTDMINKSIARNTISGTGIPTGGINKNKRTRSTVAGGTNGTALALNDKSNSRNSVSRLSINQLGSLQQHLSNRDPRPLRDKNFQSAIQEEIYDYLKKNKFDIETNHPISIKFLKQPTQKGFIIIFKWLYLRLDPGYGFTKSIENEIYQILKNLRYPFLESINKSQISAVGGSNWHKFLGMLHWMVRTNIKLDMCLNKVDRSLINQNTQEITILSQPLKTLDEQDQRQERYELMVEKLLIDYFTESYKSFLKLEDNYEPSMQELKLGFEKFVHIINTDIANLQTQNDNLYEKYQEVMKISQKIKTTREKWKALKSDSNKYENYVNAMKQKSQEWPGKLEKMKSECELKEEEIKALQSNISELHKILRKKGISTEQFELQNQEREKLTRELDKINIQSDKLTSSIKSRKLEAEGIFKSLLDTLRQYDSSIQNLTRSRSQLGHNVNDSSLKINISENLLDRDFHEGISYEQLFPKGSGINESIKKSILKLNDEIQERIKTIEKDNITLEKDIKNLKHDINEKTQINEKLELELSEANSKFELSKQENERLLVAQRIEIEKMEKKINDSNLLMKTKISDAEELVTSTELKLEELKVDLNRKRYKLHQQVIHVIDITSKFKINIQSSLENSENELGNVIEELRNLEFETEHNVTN
Ndc80 complex (Ndc80-Flag:Nuf2:Spc24:Spc25), sequence (P33895 whole entry, chain 2 of 4): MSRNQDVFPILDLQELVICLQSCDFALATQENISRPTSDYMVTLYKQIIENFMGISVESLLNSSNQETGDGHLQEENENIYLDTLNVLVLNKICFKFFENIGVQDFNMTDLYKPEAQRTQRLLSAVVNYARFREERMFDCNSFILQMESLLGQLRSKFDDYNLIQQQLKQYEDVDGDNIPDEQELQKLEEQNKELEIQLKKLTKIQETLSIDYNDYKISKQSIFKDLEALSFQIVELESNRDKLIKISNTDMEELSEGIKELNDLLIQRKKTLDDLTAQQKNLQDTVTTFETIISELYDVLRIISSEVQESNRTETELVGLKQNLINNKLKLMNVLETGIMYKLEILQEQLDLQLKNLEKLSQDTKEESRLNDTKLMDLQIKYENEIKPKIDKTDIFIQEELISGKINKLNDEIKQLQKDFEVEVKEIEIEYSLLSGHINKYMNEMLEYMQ
Ndc80 complex (Ndc80-Flag:Nuf2:Spc24:Spc25), sequence (Q04477 whole entry, chain 3 of 4): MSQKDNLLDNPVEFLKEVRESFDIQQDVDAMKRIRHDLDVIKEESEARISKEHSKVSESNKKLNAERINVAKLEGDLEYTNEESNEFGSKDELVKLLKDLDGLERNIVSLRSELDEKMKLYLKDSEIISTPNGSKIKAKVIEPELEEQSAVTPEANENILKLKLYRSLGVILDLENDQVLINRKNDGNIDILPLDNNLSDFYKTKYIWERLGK
Ndc80 complex (Ndc80-Flag:Nuf2:Spc24:Spc25), sequence (P40014 whole entry, chain 4 of 4): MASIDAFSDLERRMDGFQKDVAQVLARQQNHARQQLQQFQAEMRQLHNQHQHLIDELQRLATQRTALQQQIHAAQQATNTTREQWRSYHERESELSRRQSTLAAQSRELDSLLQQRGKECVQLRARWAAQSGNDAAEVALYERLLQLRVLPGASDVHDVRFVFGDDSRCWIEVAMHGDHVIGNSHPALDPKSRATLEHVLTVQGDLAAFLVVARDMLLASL

| Binder | binding result |
| --- | --- |
| StrepII-tagged full-length Mps1 (wild type) (natural protein, S. cerevisiae, UniProt P54199 1-764, looked up) MSTNSFHDYVDLKSRTNTRQFSDDEEFTTPPKLSNFGSALLSHTEKTSASEILSSHNNDKIANRLEEMDRSSSRSHPPPSMGNLTSGHTSTSSHSTLFGRYLRNNHQTSMTTMNTSDIEINVGNSLDKSFERIRNLRQNMKEDITAKYAERRSKRFLISNRTTKLGPAKRAMTLTNIFDEDVPNSPNQPINARETVELPLEDSHQTNFKETKRNTDYDSIDFGDLNPIQYIKKHNLPTSDLPLISQIYFDKQREENRQAALRKHSSRELLYKSRSSSSSLSSNNLLANKDNSITSNNGSQPRRKVSTGSSSSKSSIEIRRALKENIDTSNNSNFNSPIHKIYKGISRNKDSDSEKREVLRNISINANHADNLLQQENKRLKRSLDDAITNENINSKNLEVFYHRPAPKPPVTKKVEIVEPAKSASLSNNRNIITVNDSQYEKIELLGRGGSSRVYKVKGSGNRVYALKRVSFDAFDDSSIDGFKGEIELLEKLKDQKRVIQLLDYEMGDGLLYLIMECGDHDLSQILNQRSGMPLDFNFVRFYTKEMLLCIKVVHDAGIVHSDLKPANFVLVKGILKIIDFGIANAVPEHTVNIYRETQIGTPNYMAPEALVAMNYTQNSENQHEGNKWKVGRPSDMWSCGCIIYQMIYGKPPYGSFQGQNRLLAIMNPDVKIPFPEHTSNNEKIPKSAIELMKACLYRNPDKRWTVDKVLSSTFLQPFMISGSIMEDLIRNAVRYGSEKPHISQDDLNDVVDTVLRKFADYKI | binds |
| StrepII-tagged full-length Mps1^bp (R151D R152D R155D) (natural protein, S. cerevisiae, UniProt P54199 1-764, looked up) MSTNSFHDYVDLKSRTNTRQFSDDEEFTTPPKLSNFGSALLSHTEKTSASEILSSHNNDKIANRLEEMDRSSSRSHPPPSMGNLTSGHTSTSSHSTLFGRYLRNNHQTSMTTMNTSDIEINVGNSLDKSFERIRNLRQNMKEDITAKYAEDDSKDFLISNRTTKLGPAKRAMTLTNIFDEDVPNSPNQPINARETVELPLEDSHQTNFKETKRNTDYDSIDFGDLNPIQYIKKHNLPTSDLPLISQIYFDKQREENRQAALRKHSSRELLYKSRSSSSSLSSNNLLANKDNSITSNNGSQPRRKVSTGSSSSKSSIEIRRALKENIDTSNNSNFNSPIHKIYKGISRNKDSDSEKREVLRNISINANHADNLLQQENKRLKRSLDDAITNENINSKNLEVFYHRPAPKPPVTKKVEIVEPAKSASLSNNRNIITVNDSQYEKIELLGRGGSSRVYKVKGSGNRVYALKRVSFDAFDDSSIDGFKGEIELLEKLKDQKRVIQLLDYEMGDGLLYLIMECGDHDLSQILNQRSGMPLDFNFVRFYTKEMLLCIKVVHDAGIVHSDLKPANFVLVKGILKIIDFGIANAVPEHTVNIYRETQIGTPNYMAPEALVAMNYTQNSENQHEGNKWKVGRPSDMWSCGCIIYQMIYGKPPYGSFQGQNRLLAIMNPDVKIPFPEHTSNNEKIPKSAIELMKACLYRNPDKRWTVDKVLSSTFLQPFMISGSIMEDLIRNAVRYGSEKPHISQDDLNDVVDTVLRKFADYKI | binds |
